Experimental findings from US20150252148A1 are described below.

This data set concerns Dynamic MAPTrix™ Laminin.

Take type IV bacterial collagenase: the “enzymatic digestion monitored by SDS-PAGE (25:1 substrate:collagenase, 2 h, 37° C.)” value was “the apparent molecular weight of various fractions from disgested Dynamic MAPTrix™ Laminin on a SDS-PAGE gel was 29, 18, and 12 kDa”.
